For this assay, the target named is T1, CyaA-hemolysin (CyaA-Hly), 126-kDa truncated fragment of Bordetella pertussis adenylate cyclase-hemolysin … (Bordetella pertussis, strain not named; …, UniProt P0DKX7).
T1 construct: also called CyaA-Hly toxin; His-tagged CyaA-Hly domain
Briefly: ELISA.

T1 sequence (P0DKX7 whole entry, looked up, the tested form may be a part): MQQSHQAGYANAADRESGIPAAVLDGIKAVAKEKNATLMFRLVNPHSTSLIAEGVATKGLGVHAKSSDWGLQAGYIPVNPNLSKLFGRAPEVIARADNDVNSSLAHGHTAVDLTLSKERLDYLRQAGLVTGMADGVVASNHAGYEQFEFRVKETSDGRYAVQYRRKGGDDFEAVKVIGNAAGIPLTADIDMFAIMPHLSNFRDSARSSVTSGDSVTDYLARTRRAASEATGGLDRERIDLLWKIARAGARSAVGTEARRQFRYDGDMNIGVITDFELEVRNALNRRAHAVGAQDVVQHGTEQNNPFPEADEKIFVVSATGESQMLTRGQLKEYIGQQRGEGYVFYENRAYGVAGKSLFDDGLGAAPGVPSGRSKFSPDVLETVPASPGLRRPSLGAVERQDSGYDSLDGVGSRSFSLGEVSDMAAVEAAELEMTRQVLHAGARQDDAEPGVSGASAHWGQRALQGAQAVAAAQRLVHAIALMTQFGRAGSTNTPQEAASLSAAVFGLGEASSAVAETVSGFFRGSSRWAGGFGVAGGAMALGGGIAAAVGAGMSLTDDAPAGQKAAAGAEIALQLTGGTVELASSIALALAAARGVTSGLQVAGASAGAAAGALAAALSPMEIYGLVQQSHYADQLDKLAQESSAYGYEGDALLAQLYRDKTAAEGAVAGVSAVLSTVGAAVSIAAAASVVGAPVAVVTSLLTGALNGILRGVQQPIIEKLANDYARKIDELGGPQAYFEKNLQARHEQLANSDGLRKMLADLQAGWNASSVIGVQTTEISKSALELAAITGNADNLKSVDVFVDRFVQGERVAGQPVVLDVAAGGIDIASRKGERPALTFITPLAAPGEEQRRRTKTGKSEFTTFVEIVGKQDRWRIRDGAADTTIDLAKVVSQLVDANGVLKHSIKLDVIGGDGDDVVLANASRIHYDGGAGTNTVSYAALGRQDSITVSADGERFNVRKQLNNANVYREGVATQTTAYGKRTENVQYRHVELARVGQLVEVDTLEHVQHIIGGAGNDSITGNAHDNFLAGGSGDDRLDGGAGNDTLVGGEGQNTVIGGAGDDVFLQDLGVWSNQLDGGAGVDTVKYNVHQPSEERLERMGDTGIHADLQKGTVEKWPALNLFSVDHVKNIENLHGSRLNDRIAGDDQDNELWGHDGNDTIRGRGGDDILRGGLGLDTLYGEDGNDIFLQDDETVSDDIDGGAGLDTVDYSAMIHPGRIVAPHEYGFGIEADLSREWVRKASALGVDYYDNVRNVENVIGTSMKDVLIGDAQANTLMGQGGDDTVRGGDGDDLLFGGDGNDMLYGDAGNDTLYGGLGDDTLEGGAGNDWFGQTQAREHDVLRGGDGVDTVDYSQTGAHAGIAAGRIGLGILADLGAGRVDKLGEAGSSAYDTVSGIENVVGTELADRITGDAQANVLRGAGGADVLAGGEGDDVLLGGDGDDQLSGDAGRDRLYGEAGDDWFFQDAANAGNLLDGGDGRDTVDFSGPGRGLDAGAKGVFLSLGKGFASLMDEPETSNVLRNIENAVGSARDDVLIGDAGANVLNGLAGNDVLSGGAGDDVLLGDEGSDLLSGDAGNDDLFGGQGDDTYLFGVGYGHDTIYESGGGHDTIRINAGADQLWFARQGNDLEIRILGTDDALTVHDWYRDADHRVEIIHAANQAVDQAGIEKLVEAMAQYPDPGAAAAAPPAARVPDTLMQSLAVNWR

B1: VHH37, His-tagged, purified and refolded (VHH)
VHH: VQLVESGGGSVQAGGSLRLSCTASGFTFDDFDMGWYHQAPGNECELVSTISNAGHTYYADSVKGRFAISRDNAKNMVYLQMNNLKPEDTAMYYCAAVGALLGFPLVLARPRGGYNYWGQGTMVTVSS
notes: not shown: His6, C-terminal, kept
As for B1, the binding result (both partners purified) was “binds”.

B2: VHH37, E-tagged (clone no. 37, from the humanized-camel VH/VHH phage-display library) (VHH)
VHH: B1 VHH
notes: source: E. coli HB2151, phagemid pCANTAB5E, IPTG-induced, in lysate; not shown: E tag, C-terminal, kept
For B2, where the note is “one partner purified”, the binding result is listed as “binds”.

B3: VHH2, E-tagged (clone no. 2, from the humanized-camel VH/VHH phage-display library) (VHH)
VHH: VQLVESGGGSVQAGGSLRLSCTVSGYTDNRYCMGWFRQAPGKEREGVAGINDFGGTTYYVDSVKGRFTISQNNAKNTVYLQMNSLKPEDTAIYYCAIAPRIWGSICSPGTQYNYWGQGTMVTVSS
notes: as for B2
As for B3, where the note is “one partner purified”, the binding result is reported as “binds”.

B4: VHH2, His-tagged, purified and refolded (VHH)
VHH: B3 VHH
notes: as for B1
On to B4, for which the binding result (both partners purified) is “binds”.

The record behind these values is article PMC4848625, “Structural Characterization of Humanized Nanobodies with Neutralizing Activity against the Bordetella pertussis CyaA-Hemolysin: Implications for a Potential Epitope of Toxin-Protective Antigen” (Toxins, 2016).
